The text below walks through data of the DeepSol protein solubility set.

The data set is described as follows: soluble on expression in E. coli; label from the status in PepcDB or PDB records.
In the case of “MAHHHHHHMFLRVPLFVAHLRLLPRQRIYMGAHCGGNIWANGRSVSVHFMVGWCYTMSRDVAEASVSFKPLRRLAHTPYSKERDEEFSSIGMGHEDMMVGHVLLDEVKYQPLIHVKVLPCHFLEARSDTGESQVVPTSMCVHHIREDDYAALMARFGNDTSPVARLWRVSEDVIYPSCD”, the “soluble on expression in E. coli” value is reported as “not soluble”.
As for “SEPTAPSLTEEDLTEVKKDALENLRVYLCEKIIAERHFDHLRAKKILSREDTEEISCRTSSRKRAGKLLDYLQENPKGLDTLVESIRREKTQNFLIQKITDEVLKLRNIKLEHLKGLKCSSCEPFPDGATNNLSRSNSDESNFSEKLRASTVMYHPEGESSTTPFFSTNSSLNLPVLEVGRTENTIFSSTTLPRPGDPGAPPLPPDLQLEEEGTCANSSEMFLPLRSRTVSRQ”, the “soluble on expression in E. coli” value is “soluble”.
Then “MTTMSGYTRSQRPRQAILGQLPRIHRADGSPIRVLLVDDEPALTNLVKMALHYEGWDVEVAHDGQEAIAKFDKVGPDVLVLDIMLPDVDGLEILRRVRESDVYTPTLFLTARDSVMDRVTGLTSGADDYMTKPFSLEELVARLRGLLRRSSHLERPADEALRVGDLTLDGASREVTRDGTPISLSSTEFELLRFLMRNPRRALSRTEILDRVWNYDFAGRTSIVDLYISYLRKKIDSDREPMIHTVRGIGYMLRPPE”, with “not soluble”; and “MSNLSGTDKSVILLMTIGEDRAAEVFKHLSTREVQALSTAMANVRQISNKQLTDVLSEFEQEAEQFAALNINANEYLRSVLVKALGEERASSLLEDILETRDTTSGIETLNFMEPQSAADLIRDEHPQIIATILVHLKRSQAADILALFDERLRHDVMLRIATFGGVQPAALAELTEVLNGLLDGQNLKRSKMGGVRTAAEIINLMKTQQEEAVITAVREFDGELAQKIIDEMFLFENLVDVDDRSIQRLLQEVDSESLLIALKGAEPPLREKFLRNMSQRAADILRDDLANRGPVRLSQVENEQKAILLIVRRLAETGEMVIGSGEDTYV”, with “not soluble”; and “MSVAETEIPIPAATPSLTDACVHCGFCLSDCPSYRVLGRETDSPRGRVYLMDSLQQGRIELSDTVVEHFDTCLGCLACTSACPSGVQYDQLIEEMRQRIAQEHRRPWPEAIWRKLLEHHHHHH”, with “not soluble”.
Then “MAMHPRAGQKARQEDLHNIPALVANYYLLQPEAGNTAHKVEFGTSGHRGTADKTTFNEHHILAIAQAVADVRHEHGVTGPIFIGKDTHALSEPAFSSVLEVLIANGIEVIVQENNGYTPTPGISHAILTYNLKHADKADGIVITPSHNPPQDGGIKYNPPHGGPAEGELTQAIEDRANAYISQQLAGVKRMPIALAKQSELLKQVDLVKPYVDDLVNVVDMAAIQKAKLKIGVDPLGGSGIDYWRQIGNAYQLDLTLVSEAIDPSFQFMSLDKDGVIRMDCSSPYAMAGLLALKDEYDLAFGNDPDYDRHGIVTPKGLMNPNHFLAVCIDYLYRHRQGWAGHVAVGKTLVSSAMIDKVVADLGRELCEVPVGFKWFVDGLYSGRFGFGGEESAGASFLRQDGTPWSTDKDGIILCLLAAEITAVTGKNPQQYYDELAAKHGDFYYSRIQAVANGPQKNVLKKLSPEMVSAQTLAGDAITARLTHAPGNGAAIGGLKVTTDYGWFAARPSGTEDIYKIYCESFKGAEHLKQIESEAQQIVNQVFKDAGL”, with “not soluble”; and “MSLAEKKERIRFMTVDDVDAVVRVEEQTFTVPWSREAFINEVTNNQFARYVVYEVGEQIVGYCGVWVVYDESHITNIAIHPDYRGEKRGEALLRYILEFARLLGAKKLSLEVRISNEIAQRLYRKFGFQAGGIRKNYYTDNQEDALVMWVMLSEGHHHHHH”, with “soluble”.
“MGSDKIHHHHHHMKKYVIVTGGVLSGIGKGIFSASLARLMKEHGVDVNVLKIDPYLNVDAGTMNPNQHGEVFVTEDGYEADLDLGHYERFLGRDMTRQNNMTAGQVYLRVIEKERQGKYLGNTVQIVPHLTEEIKDRIRALEAELLVVEIGGTVGDIEGEVFLEAVRELQMEEGKENFLFAHVTYVPYLRTTNEFKTKPTQQSVQLLRRIGITPDMVIVRSEFPLDVPSMNKVALFSGVPRDFVINLPDTKNVYEVPEILRDMGLHEKIASKLNVELKKSTFNWSYPKAFKPYRIALVGKYLGTDDAYKSIIESVFLTGIEKPTVVDSQMLEDMNDEEVKKVLDEYDALIIPGGFGRRGVEGKIKAIKYARENKKPILGICLGMQLMVIEFARNVFGYKEANSTEFDPNTPYPVVDLMEEQKRILKLGGTMRLGAQKVKIFPKTKLYEVYGGVEEVYERHRHRYEANEEAFPELFKKPGEEGYKLVVSAKSDFIEAVELEDHPFFVGVQFHPEYKSKVGAPHPIFVYLRKVLEGSQ”: the “soluble on expression in E. coli” value was “not soluble”.
In the case of “MSAIKVFILSDSIGETAHNVALAAAAQFSDYDIRYQRFPFVRTDSLLQTVLSQALKEHAAIFHTFVDRRLSQIVNQFCEAHELPYYDVITPALDTFSQITHVQPSNHPGTVHALNTNYFDRINAIEFAVTYDDGKNPSGFLEADVVLLGVSRTSKTPLSLYLANRNLKVANLPLVPQAQIPDEIWKVDPKKIFGLTNDPEKLNDIRRQRMVQYGLNPDTMYSNTDKIKAELEYADKIFKKIGCLVINVANKSIEETATLITESLNTDDTNNGLEHHHHHH”, the “soluble on expression in E. coli” value is “soluble”.
In the case of “MGSDKIHHHHHHMVSKYHEIFLNIIQQIEDGQLKRGDKLPSIRQLSQDFHCSKDTVQKALSELKYQKYIYPILKSGYYVFEDNHEEEILPPISPSNYHNIAYEDFRTCMNETLVGREDYLFNYYHQEEGLEELTQSLQALFVDEAIYSKKENIVVTSGSQQALYILSQMTFPNQKEIILLEQPTYHRMNTLVKSQNLPYLTIERGFDGLDFNRLEEIFKQEKIKFFYTIPRLSNPLGLSYSHKEKQTLVELAHKYDVYIIEDDYMADFDRASNVSLHYLDTNDRIIYLKSFSMSLFPALRLGSLILPKKLLKKFLDYKNLIDYDTNLIMQKALSLYIDNGMFAKNKKRLKQMYYQKTSELAKEFSTFTLKLPHHIFQDSLILQLPTKVNLALLKYRLNSPNFLEKNYISTCPYHFIQLQAGENWQNLLTIFE”, the “soluble on expression in E. coli” value is on record as “not soluble”.
Turning to “MSNDKSAEVVVLPRENDEESKEPVLKNQFDLSTFDIDSPEIDLTHTRADHIPDLTGFPKIEELRMRNNLLVSISPTISSLVTLTSLDLYENQLTEISHLESLVNLVSLDLSYNRIRQINGLDKLTKLETLYLVSNKIEKIENLEALTQLKLLELGDNRIKKIENIGHLVNLDELFIGKNKIRQLEGVETLQKLSVLSLPGNRIVKIENVEQLNNLKELYLSDQGLQDIHGVEPLTNLLLLDVANNEIKTFSGVERLESLNDFWANDNKVESFSEIEQLSKLKGLQTVYLERNPFYFNDTNQYRRKVMMTLTQVTQIDATTCRKPIE”, the “soluble on expression in E. coli” value is listed as “not soluble”.
With “MSLTFKLRETIKINHKKVQRIMQWLGLKGKCKTQKYRSYQGEVGHIADNLLQRDFTATQPNEKWTTDITEFKCAEGKLYLSPIKDLFNNEIIAYDLARSPNFEQITRMMKQAVARLEGAKPILHSDQGWQYQMIGYQNILRENGIQQSMSRKGNCLYNSAMESFFGRLKTECYYGKRFETFEQLEKTIHEYIHYYNHERIQGKLKGLSPVNYRTQSLNEGHHHHHH”, the “soluble on expression in E. coli” value is recorded as “not soluble”.
Then “MGSDKIHHHHHHVDDGPCAARLRWTNSVMTEPLMPQTDVPFDELIIREYLLDNPDFFNRYPELLLAMRLPHMERGAISLVERRQEMLRQRVSQLEEEITSLLTMAARNEKIYQFNTELSFQLLNCADLVSLKEVLADSLKLQFNFSHVRLISVLDTDMKAIWDQRLHKGHYFGRLTQQEAKRLFGSEVGSVALTKLSEDNPVIFAIASQDATHFHPDMDNMLLEQLRRLLAHMLAKL”, with “not soluble”; and “MGSSHHHHHHSSGRENLYFQGHMTRTNLITGFLGSGKTTSILHLLAHKDPNEKWAVLVNEFGEVGIDGALLADSGALLKEIPGGCMCCVNGLPMQVGLNTLLRQGKPDRLLIEPTGLGHPKQILDLLTAPVYEPWIDLRATLCILDPRLLLDEKSASNENFRDQLAAADIIVANKSDRTTPESEQALQRWWQQNGGDRQLIHSEHGKVDGHLLDLPRRNLAELPASAAHSHQHVVKKGLAALSLPEHQRWRRSLNSGQGYQACGWIFDADTVFDTIGILEWARLAPVERVKGVLRIPEGLVRINRQGDDLHIETQNVAPPDSRIELISSSEADWNALQSALLKLRLATTA”, with “soluble”.
